This is an account of results in article PMC7948471, “RSU-1 interaction with prohibitin-2 links cell–extracellular matrix detachment to downregulation of ERK signaling” (The Journal of Biological Chemistry, 2020).

The target in the assay is T1, GST-tagged RSU1 (full length) (human, UniProt Q15404 1-277).
T1 construct: Ras suppressor 1 (RSU1), human; the ORF inserted into pGEX-5x-1; In solution in the MBP-PHB2 pull-down; as bait in the pull-down of venus-PHB2; also called GST-RSU1; source: E. coli, purified (glutathione-Sepharose 4B)
T1 sequence (looked up): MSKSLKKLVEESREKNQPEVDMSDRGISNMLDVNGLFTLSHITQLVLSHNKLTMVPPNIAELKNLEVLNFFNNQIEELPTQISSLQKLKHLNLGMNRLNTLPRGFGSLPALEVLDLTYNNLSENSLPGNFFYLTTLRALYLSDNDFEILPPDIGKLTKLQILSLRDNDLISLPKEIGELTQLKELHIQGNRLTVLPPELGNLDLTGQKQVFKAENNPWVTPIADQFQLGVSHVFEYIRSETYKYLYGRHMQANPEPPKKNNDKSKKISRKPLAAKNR
Put plainly: pull-down; GST-RSU1 (10 μg/ml) with amylose beads holding MBP-tagged full-length or deletion forms of PHB2 or MBP; 1% Triton X-100, 10 mM Tris, 100 mM NaH2PO4, pH 8.0; 4 °C, 3 h; Western blot with anti-RSU1. To be noted: both partners purified.

B1: MBP-tagged PHB2 middle region (amino acids 150–206) (domain or fragment, human, UniProt Q99623 150-206, looked up)
chain: ASQLITQRAQVSLLIRRELTERAKDFSLILDDVAITELSFSREYTAAVEAKQVAQQE
notes: source: E. coli, purified (amylose-agarose beads)
As for B1, the binding result is recorded as “binds”.

B2: MBP-tagged PHB2 mutant in which amino acids 150 to 206 are deleted (Δ150–206) (natural protein, human, UniProt Q99623 1-299, looked up)
chain: MAQNLKDLAGRLPAGPRGMGTALKLLLGAGAVAYGVRESVFTVEGGHRAIFFNRIGGVQQDTILAEGLHFRIPWFQYPIIYDIRARPRKISSPTGSKDLQMVNISLRVLSRPNAQELPSMYQRLGLDYEERVLPSIVNEVLKSVVAKFNAQRAQFLVEKAKQEQRQKIVQAEGEAEAAKMLGEALSKNPGYIKLRKIRAAQNISKTIATSQNRIYLTADNLVLNLQDESFTRGSDSLIKGKK
notes: as for B1
Regarding B2, the binding result was “binds”.
